Experimental data from paper doi:10.1101/2025.11.24.690153.
Where two headings read alike, the source gives them in different places. One block for each molecule: values may come before it.

How the values were obtained:
GtComGD [1] = molecular target: T1, GtComGD (Geobacillus thermodenitrificans, UniProt A0ABY9Q9R4 29-145); test: EMSA
T1 sequence: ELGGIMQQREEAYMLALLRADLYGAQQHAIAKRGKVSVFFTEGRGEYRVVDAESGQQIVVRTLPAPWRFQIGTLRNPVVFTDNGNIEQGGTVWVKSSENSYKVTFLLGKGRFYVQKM

GtComGD [2] = molecular target: T1, GtComGD; test: BLI
[3] = molecular target: Geobacillus thermodenitrificans His-MBP-ComGC (Geobacillus thermodenitrificans); test: SEC
[4] = molecular target: Geobacillus thermodenitrificans His-MBP-ComGC (Geobacillus thermodenitrificans); test: SEC; remark: listed apart in the source
[5] = molecular target: Geobacillus thermodenitrificans His-MBP-ComGD (Geobacillus thermodenitrificans); test: SEC
[6] = molecular target: Geobacillus thermodenitrificans His-MBP-ComGD (Geobacillus thermodenitrificans); test: SEC; remark: listed apart in the source
[7] = molecular target: Geobacillus thermodenitrificans His-MBP-ComGD (Geobacillus thermodenitrificans); test: SEC; remark: listed apart in the source
BsComGC [8] = molecular target: T2, BsComGC (Bacillus subtilis PY79, UniProt P25955 28-98); test: pull-down
T2 sequence: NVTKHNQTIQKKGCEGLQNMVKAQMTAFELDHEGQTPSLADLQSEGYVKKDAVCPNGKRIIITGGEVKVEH

BsComGC [9] = molecular target: T2, BsComGC; test: EMSA

Molecule: 40 bp dsDNA (EMSA)
Kd (GtComGD [1]): 20 µM

Molecule: 2000 bp dsDNA (BLI)
Kd (GtComGD [2]): 96 µM

stoichiometry N [3]: 2 | stoichiometry N [4]: 2
Molecule: Geobacillus thermodenitrificans His-MBP-ComGC (domain or fragment)

stoichiometry N [5]: 2 | stoichiometry N [6]: 2 | stoichiometry N [7]: 2
Molecule: Geobacillus thermodenitrificans His-MBP-ComGD (domain or fragment)

B1: 12 nt polyA ssDNA (ssDNA)
DNA: AAAAAAAAAAAA
binding result (BsComGC [8]): binds

B2: unstructured ssDNA (BLI, Fig. S3A) (ssDNA)
DNA: TTTTTTTTTTTTTTTTTTTTTTCCCACAACAAGCCACCCG
Kd (GtComGD [2]): 53 µM

B3: 40 nt ssDNA (EMSA, Fig. S3A) (ssDNA)
DNA: TTTTTTTTTTTTTTTTTTTTTTCCCACAACAAGCCACCCG
Kd (BsComGC [9]): ~100 µM | Kd (GtComGD [1]): ~13.6 µM
